Results published in paper PMC4955856 (Biochemistry, 2016).
Several values for one entry are separate records, joined by “and”; a condition that tells them apart may be missing. Equal entries are not always repeated. Where two headings read alike, the source gives them in different places. Each block holds one molecule with its values, some of them ahead of it.

Legend:
[1] = target: human UDP-glucose dehydrogenase Q458Bpa (human) (UniProt O60701); assay: cross-linking
[2] = target: human UDP-glucose dehydrogenase Q458Bpa (human) (UniProt O60701); assay: SEC
[3] = target: human UDP-glucose dehydrogenase Q458Bpa (human) (UniProt O60701); assay: SEC; remark: listed apart in the source
[4] = target: human UDP-glucose dehydrogenase T325D obligate dimeric mutant (human) (UniProt O60701); assay: SEC
[5] = target: human UDP-glucose dehydrogenase Y96Bpa (human) (UniProt O60701); assay: SEC
SEC = target: the molecule itself; assay: SEC

- cross-linking efficiency (holoenzyme) [1]: > 60%
- cross-linking efficiency (with UDP-xylose alone) [1]: 40%
- total crosslinking efficiency (with NAD+ and UDP-glucose) [1]: 63%
- stoichiometry N [2]: 6
- stoichiometry N [3]: 6
Molecule: human UDP-glucose dehydrogenase Q458Bpa (from UniProt O60701 1-494) (enzyme)

- stoichiometry N [4]: 2
Molecule: human UDP-glucose dehydrogenase T325D obligate dimeric mutant (from UniProt O60701 1-494) (enzyme)

- stoichiometry N [5]: 2
Molecule: human UDP-glucose dehydrogenase Y96Bpa (from UniProt O60701 1-494) (enzyme)

B1: human UDP-glucose dehydrogenase, wild type (enzyme, UniProt O60701 1-494, looked up)
chain: MFEIKKICCIGAGYVGGPTCSVIAHMCPEIRVTVVDVNESRINAWNSPTLPIYEPGLKEVVESCRGKNLFFSTNIDDAIKEADLVFISVNTPTKTYGMGKGRAADLKYIEACARRIVQNSNGYKIVTEKSTVPVRAAESIRRIFDANTKPNLNLQVLSNPEFLAEGTAIKDLKNPDRVLIGGDETPEGQRAVQALCAVYEHWVPREKILTTNTWSSELSKLAANAFLAQRISSINSISALCEATGADVEEVATAIGMDQRIGNKFLKASVGFGGSCFQKDVLNLVYLCEALNLPEVARYWQQVIDMNDYQRRRFASRIIDSLFNTVTDKKIAILGFAFKKDTGDTRESSSIYISKYLMDEGAHLHIYDPKVPREQIVVDLSHPGVSEDDQVSRLVTISKDPYEACDGAHAVVICTEWDMFKELDYERIHKKMLKPAFIFDGRRVLDGLHNELQTIGFQIETIGKKVSSKRIPYAPSGEIPKFSLQDPPNKKPKV
- stoichiometry N (SEC): 6 and 2
